{
  "source": "the Human Domainome abundance scans (Beltran et al. 2025)",
  "parents": {"B1": {"name": "Dynamin-binding protein, residues 146 to 206; numbered along this chain, Q6XZF7 (parent)", "chain": "SMGQARALMGLSAQLDEELDFREGDVITIIGVPEPGWFEGELEGRRGIFPEGFVELLGPLR"}},
  "note": "± gives the uncertainty stated by the source.",
  "data": [
    {"variants_of": "B1", "test": "abundance fitness (aPCA) (normalised: wild type 0, dead -1); higher = more abundant; growth selection in yeast, the domain comes from the species named", "conditions": "Homo sapiens", "values": [
      {"variant": "SMGQGRALMGLSAQLDEELDFREGDVITIIGVPEPGWFEGELEGRRGIFPEGFVELLGPLR", "note": "[A5G]", "abundance fitness": "-0.008 ± 0.045"},
      {"variant": "SMGQDRALMGLSAQLDEELDFREGDVITIIGVPEPGWFEGELEGRRGIFPEGFVELLGPLR", "note": "[A5D]", "abundance fitness": "-0.706 ± 0.18"},
      {"variant": "SMGQARALMGLSAQLDEELDFREIDVITIIGVPEPGWFEGELEGRRGIFPEGFVELLGPLR", "note": "[G24I]", "abundance fitness": "-0.897 ± 0.13"},
      {"variant": "SMGQARALMGLSAQLDEELDFRERDVITIIGVPEPGWFEGELEGRRGIFPEGFVELLGPLR", "note": "[G24R]", "abundance fitness": "-0.778 ± 0.09"},
      {"variant": "SMGQARALMGLSAQLDEELDFREGDVITIIGVPEPGWKEGELEGRRGIFPEGFVELLGPLR", "note": "[F38K]", "abundance fitness": "-0.503 ± 0.098"},
      {"variant": "SMGQARALMGLSAQLDEELDFREGDVITIIGVPEPGWFEGELEGRRGIFPEGFVELLGPGR", "note": "[L60G]", "abundance fitness": "-0.176 ± 0.11"},
      {"variant": "SMGQARALMGLSAQLDEELDFREGDVITIIGVPEPGWFEGELEGRRGIFPEGFVELLGPYR", "note": "[L60Y]", "abundance fitness": "-0.862 ± 0.39"},
      {"variant": "SMGQARALMGLSAQLDEELDFREGDVITIIGVPEPGWFEGELEGRRGRFPEGFVELLGPLR", "note": "[I48R]", "abundance fitness": "0.012 ± 0.11"},
      {"variant": "SMGQARALMGLSAQLDEELDFREGDVITIIGVPEPGWFEGELEGRRGPFPEGFVELLGPLR", "note": "[I48P]", "abundance fitness": "-0.651 ± 0.12"},
      {"variant": "SMGQARALMGLSAQLDEELDFREGDVITIIGVPEPMWFEGELEGRRGIFPEGFVELLGPLR", "note": "[G36M]", "abundance fitness": "-0.584 ± 0.17"},
      {"variant": "SMGQARALMGLSAQLDEELDFREGDVITIIGVPEPEWFEGELEGRRGIFPEGFVELLGPLR", "note": "[G36E]", "abundance fitness": "-0.958 ± 0.2"},
      {"variant": "SMGQARALMGLSAQLDEELDFREGDVITIIGVPEIGWFEGELEGRRGIFPEGFVELLGPLR", "note": "[P35I]", "abundance fitness": "-0.642 ± 0.13"},
      {"variant": "SMGQARALMGLSAQLDEELDFREGDVITIIGVPEVGWFEGELEGRRGIFPEGFVELLGPLR", "note": "[P35V]", "abundance fitness": "-0.202 ± 0.066"},
      {"variant": "SMGQARALMGLSAQLDEELDFREGDVITIIGVPEAGWFEGELEGRRGIFPEGFVELLGPLR", "note": "[P35A]", "abundance fitness": "-0.116 ± 0.062"},
      {"variant": "SMGQARALMGLSAQLDEELDFREGDVITIIGVPESGWFEGELEGRRGIFPEGFVELLGPLR", "note": "[P35S]", "abundance fitness": "-0.292 ± 0.068"},
      {"variant": "SMGQARALMGLSAQLDEELDFREGDVITIIGVPEDGWFEGELEGRRGIFPEGFVELLGPLR", "note": "[P35D]", "abundance fitness": "-0.062 ± 0.098"},
      {"variant": "SIGQARALMGLSAQLDEELDFREGDVITIIGVPEPGWFEGELEGRRGIFPEGFVELLGPLR", "note": "[M2I]", "abundance fitness": "-0.03 ± 0.058"},
      {"variant": "SMGQARALMGLSAQLDEELDFREGDVITIIGVPEPGWFEGELEGRRGIKPEGFVELLGPLR", "note": "[F49K]", "abundance fitness": "-0.655 ± 0.21"},
      {"variant": "SMGQARALMGLSAQLDEELDFREGDVITIIGVPEPGWFEGELEGRRGIDPEGFVELLGPLR", "note": "[F49D]", "abundance fitness": "-0.74 ± 0.097"},
      {"variant": "SMGQARALMQLSAQLDEELDFREGDVITIIGVPEPGWFEGELEGRRGIFPEGFVELLGPLR", "note": "[G10Q]", "abundance fitness": "-0.016 ± 0.12"},
      {"variant": "SMGQARALMGLSAQLDEELDFREGDVITIIGVPEPGWFEGELEGRRGIFPEAFVELLGPLR", "note": "[G52A]", "abundance fitness": "0.111 ± 0.11"},
      {"variant": "SMGQARALMGLSAQLDEELDFREGDVITIIGVPEPGWFEGELEGRRGIFPEMFVELLGPLR", "note": "[G52M]", "abundance fitness": "0.046 ± 0.23"},
      {"variant": "SMGQARALMGLSAQLDEELDFREGDVITIIGVPEPGWFEGELEGRRGIFPETFVELLGPLR", "note": "[G52T]", "abundance fitness": "-0.083 ± 0.15"},
      {"variant": "SMGQARALMGLSAQLDEELDFREGDVITIIGVPEPGWFEGELEGRRGIFPEEFVELLGPLR", "note": "[G52E]", "abundance fitness": "-0.189 ± 0.25"},
      {"variant": "SMGQARALMGLSAQLDEELDFREGDVITIIGVPEPGWFEFELEGRRGIFPEGFVELLGPLR", "note": "[G40F]", "abundance fitness": "-0.901 ± 0.087"},
      {"variant": "SMGQARALMGLSAQLDEELDFREGDVITIIGVPEPGWFEGELEGRRLIFPEGFVELLGPLR", "note": "[G47L]", "abundance fitness": "-0.696 ± 0.11"},
      {"variant": "SMGQARALMGLSAQLDEELDFREGDVITIIGVPEPGWFEGELEGRRDIFPEGFVELLGPLR", "note": "[G47D]", "abundance fitness": "-0.804 ± 0.27"},
      {"variant": "SMGQARALMGLSAQLDEEADFREGDVITIIGVPEPGWFEGELEGRRGIFPEGFVELLGPLR", "note": "[L19A]", "abundance fitness": "-0.525 ± 0.076"},
      {"variant": "SMGQARALMGLSAQLDEEKDFREGDVITIIGVPEPGWFEGELEGRRGIFPEGFVELLGPLR", "note": "[L19K]", "abundance fitness": "-0.705 ± 0.35"},
      {"variant": "SMGQARALMGLSAQLDEEDDFREGDVITIIGVPEPGWFEGELEGRRGIFPEGFVELLGPLR", "note": "[L19D]", "abundance fitness": "-0.413 ± 0.17"},
      {"variant": "SMGQARALMGLSAQLNEELDFREGDVITIIGVPEPGWFEGELEGRRGIFPEGFVELLGPLR", "note": "[D16N]", "abundance fitness": "-0.315 ± 0.1"},
      {"variant": "SMGQARALMGLSTQLDEELDFREGDVITIIGVPEPGWFEGELEGRRGIFPEGFVELLGPLR", "note": "[A13T]", "abundance fitness": "0.353 ± 0.23"},
      {"variant": "SMGQARALMGLSEQLDEELDFREGDVITIIGVPEPGWFEGELEGRRGIFPEGFVELLGPLR", "note": "[A13E]", "abundance fitness": "-0.57 ± 0.18"},
      {"variant": "SMGQARALMGLSAQLDEELDFREGDVITIIGVPLPGWFEGELEGRRGIFPEGFVELLGPLR", "note": "[E34L]", "abundance fitness": "-0.611 ± 0.2"},
      {"variant": "SMGQARALMGLSAQLDEELDFREGDVITIIGVPRPGWFEGELEGRRGIFPEGFVELLGPLR", "note": "[E34R]", "abundance fitness": "0.025 ± 0.12"},
      {"variant": "SMGQARALMGLSAQLDEELDFREGDVITIIGVPMPGWFEGELEGRRGIFPEGFVELLGPLR", "note": "[E34M]", "abundance fitness": "-0.398 ± 0.3"},
      {"variant": "SMGQARALMGLSAQLDEGLDFREGDVITIIGVPEPGWFEGELEGRRGIFPEGFVELLGPLR", "note": "[E18G]", "abundance fitness": "-0.17 ± 0.039"},
      {"variant": "SMGQARALMGLSAQLDEILDFREGDVITIIGVPEPGWFEGELEGRRGIFPEGFVELLGPLR", "note": "[E18I]", "abundance fitness": "-0.212 ± 0.082"},
      {"variant": "SMGMARALMGLSAQLDEELDFREGDVITIIGVPEPGWFEGELEGRRGIFPEGFVELLGPLR", "note": "[Q4M]", "abundance fitness": "-0.065 ± 0.13"},
      {"variant": "SMGLARALMGLSAQLDEELDFREGDVITIIGVPEPGWFEGELEGRRGIFPEGFVELLGPLR", "note": "[Q4L]", "abundance fitness": "-0.176 ± 0.047"},
      {"variant": "SMGQARALMGLSAQLDEELDFWEGDVITIIGVPEPGWFEGELEGRRGIFPEGFVELLGPLR", "note": "[R22W]", "abundance fitness": "-0.542 ± 0.11"},
      {"variant": "SMGQARALMGLSAQLDEELDFQEGDVITIIGVPEPGWFEGELEGRRGIFPEGFVELLGPLR", "note": "[R22Q]", "abundance fitness": "-0.027 ± 0.089"},
      {"variant": "SMGQARALMGLSAQLDEELDFIEGDVITIIGVPEPGWFEGELEGRRGIFPEGFVELLGPLR", "note": "[R22I]", "abundance fitness": "-0.191 ± 0.064"}
    ]}
  ]
}
